Reference: the DeepSol protein solubility set

experiment: soluble on expression in E. coli; label from the status in PepcDB or PDB records

Soluble on expression in E. coli, not soluble:
MGSDKIHHHHHHMPAKVYFTDMTTNPNMNMLQKLELLLKKVELEKIIEKDKFVAVKLHFGEYGNLAFIRPQYVKIIVDQIKKLGGKPFLTDANTLYTGHRSNAVDHLINAYLNGFTYEVTGAPVIIADGLRGSDEIKVKIDGNYVKEAKIGAAIALADAIVAVTHFKGHEATGFGGTIKNVGMGSASRAGKMEQHSESKPYVVEEKCVACGTCAKFCPVGAITVTKVAKIDYEKCIGCGQCIAMCSYGAMSPKWDSSTDSLSKKMAEYAKAVLKDKKAVFISFIMNISPDCDCWNMNKPPVAPDIGIAVSTDPVALDQACIDLVLQKTGKDPFLEVHPDVTWKTQLEYAEEIGLGTREYELVKVACDLK
MGSDKIHHHHHHMPDSPTTTSTLDLELLRTFVAVVDQHSFAQAGAHLARTQSSVTQHMQRLEQQTGVSLFQKKGRHKQLTESGRQLLRHARQMLSLNDDALNSLRDSSLSGVLRIGSPHDIADTILPPLLSHIARSAPRLRLEIDVGRSPFLMDDLHRGKVDMVISTREDPTLEGFALRTSPVWWICSAQYIHVPGEPLPLILVDEPSIYRRYALHALEAANIPWRQAYLASNLIGIKAATRAGLGVTPRSMEMLGPDMRVLGESEGLPRLPDVTYHLWIRPNTLNPLARKAYELIRASQSL
MGSDKIHHHHHHMPEPKQETDFTAPAFRWENQQLKAIYTPKNIYLDDLKGIERQKEKIIQNTLQFLNGLPANDVLLTGSRGTGKSSIVRALLTEYAPQGLRLIEIERDDLADLPKIQKIIQNRPEKYIVYCDDLAFNAEDENYRSLKSVLDGSLQSGSTNFIIYATSNRRHLLPEFMHENTPVTKVDVPQYTELHPQEAIEEKISLSDRFGLWLSFYPMDQNLYLEIVEHYLDKANMPFNDEVRAESLRWCQMRGQRSGRAAYQFSKHWIGLNALKDLSNN
MGSDKIHHHHHHMPITQTTSAKKSKPIILMTMGQQDRNQHPYQVMTHKYMQPIVEIAGAIPLLMPTCFGIEDVDRYLDMVDGVYLSGAGSNIDPSLYGQENLTPEKSQDVNRDTVDLAIIAGALKRKLPILGICRGMQELNIALGGTLYQKVYSEPGFDDHREDPQTPNHVQYGPRHPIKTVPGSWLAKLIGDKTMVNSLHGQGICTLGKGLEALAYGEDGLIEAIHGPDYGQFILGVQWHPEWQANDNPDSIKLFQAFGSACRGEVSWQSANDAKLTA
MGSDKIHHHHHHMPKEKYEPPDPRRMYTIMSSEEAANGKKSHWAELEISGKVRSLSSSLWSLTHLTALHLSDNSLSCIPSDIAKLHNLVYLDLSHNQIQSLPAELGNMVSLRELHLNYNQLRVLPFELGKLFQLQTLSLKGNPLTQDILNLCLEPDGTRRLLNYLLDNLSVSTEQPPPRSWIMLQEPDRTRPTALFSVMCYNVLCDKYATRQLYGYCPSWALNWDYRKKAIIQEILSCNADIISLQEVETEQYYSFFLVELKERGYNGFFSPKSRARTMSEQERKHVDGCAIFFKTEKFTLVQKHTVEFNQLAMANSEGSEAMLNRVMTKDNIGVAVLLELRKELIEMSSGKPHLGTEKQLILVANAHMHWDPEYSDVKLVQTMMFLSEVKNIIDKASRSLKSSVLGECGTIPLVLCADLNSLPDSGVVEYLSTGGVETNHKDFKELRYNESLTNFSCNGKNGMTNGRITHGFKLKSAYENGLMPYTNYTFDFKGIIDYIFYSKPQLNTLAILGPLDHHWLVENNISGCPHPLIPSDHFSLFAQLELLLPFLPQVNGIHLPGRR
MGSDKIHHHHHHMPKERVDVLAYKQGLFNTREQAKRGVMAGLVVNVINGERYDKPGEKIDEATELKLKGDKLKYVSRGGLKLEKALKVFVISVDGQITLDIGASTGGFTDVMLQNGAQLVYAVDVGTNQLVWKLRQDERVCSMEQYNFRYAEPSDFERGQPTFASIDVSFISLNLILPALSKILTDGGQVVALIKPQFEAGREQIGKHGIVKDKSVHETVLETVTTFATNYGFTVKELDFSPIQGGHGNIEFLAYLEKSAQAQNQVLTKIKSIVEQAHKEFKKNEET
